# Laboratory results: article PMC6113214, “Outer membrane lipoprotein RlpA is a novel periplasmic interaction partner of the cell division protein FtsK in Escherichia coli” (Scientific Reports, 2018)
# Molecular target: T1, FtsZ (E. coli, UniProt P0A9A6 1-383)
# T1 construct: FtsZ, tubulin homologue of the Z-ring; the species is told only of the protein in general; also called purified FtsZ
# T1 sequence (looked up): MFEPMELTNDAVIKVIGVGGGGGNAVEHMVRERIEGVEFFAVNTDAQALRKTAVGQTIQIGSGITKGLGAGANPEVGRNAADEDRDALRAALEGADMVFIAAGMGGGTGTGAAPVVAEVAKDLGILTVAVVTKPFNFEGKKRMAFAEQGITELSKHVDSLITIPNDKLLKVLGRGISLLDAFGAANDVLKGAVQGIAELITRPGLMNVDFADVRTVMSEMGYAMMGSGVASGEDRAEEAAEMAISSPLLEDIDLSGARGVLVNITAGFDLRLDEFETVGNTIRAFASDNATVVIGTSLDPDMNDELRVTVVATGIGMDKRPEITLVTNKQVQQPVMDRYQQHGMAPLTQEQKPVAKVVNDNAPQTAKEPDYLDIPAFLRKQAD
# Assay: pull-down; His10-FtsKN bound to 100 uL Ni2+ IMAC resin (bait); 320 ug purified FLAG-RlpA or 250 ug purified FtsZ (prey); 4 C overnight; three washes in 20 mM Tris-HCl pH 7.0, 100 mM NaCl, 25 mM imidazole, 0.05% LDAO; elution with 1 M imidazole; Western blot; empty resin as control
# Conditions: both partners purified
binder,measurement,value
"His10-FtsKN(220), N-terminal domain of the cell division protein FtsK (amino acids 1-220) (domain or fragment, E. coli, UniProt P46889 1-220, looked up, FtsK of E. coli, N-terminal membrane anchor domain, amino acids 1-220 of the 1329 amino acid protein; also called WT FtsKN; not shown: His10, N-terminal, kept) MSQEYIEDKEVTLTKLSSGRRLLEALLILIVLFAVWLMAALLSFNPSDPSWSQTAWHEPIHNLGGMPGAWLADTLFFIFGVMAYTIPVIIVGGCWFAWRHQSSDEYIDYFAVSLRIIGVLALILTSCGLAAINADDIWYFASGGVIGSLLSTTLQPLLHSSGGTIALLCVWAAGLTLFTGWSWVTIAEKLGGWILNILTFASNRTRRDDTWVDEDEYEDD",binding result,binds
